Data taken from US20220112288A1 (published 2022).
Changes are numbered by the printed parent chain.

B1: 75110_02K11A (antibody, V domains shown)
VH: QVQLQESGPGLVKPSQTLSLTCTVSGGSISSGFYYWTWIRQHPGKGLEWIGYISYSGNTYYNPSFKSRLTISVDTSKSQFSLKLSSVTAADTAVYYCARDRPSNFDAFDIWGQGTMVTVSS
VL: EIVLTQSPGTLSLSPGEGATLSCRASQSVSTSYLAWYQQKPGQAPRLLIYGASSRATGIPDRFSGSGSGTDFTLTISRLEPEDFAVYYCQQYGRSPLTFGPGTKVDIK
notes: Tested as non-clonal hybridoma supernatant (AlivaMab Mouse Kappa), detected with anti-mouse Fc and anti-human kappa
B2: 75110_03I23A (antibody, V domains shown)
VH: QVQLQESGPGLVKPSETLSLTCTASGGSITSYYWNWIRQPAGKGLEWIGRIYTSGSTNYNPSLKSRVTMSVDTSKNQFSLKLSSVTAADTAVYYCARDPGYSDAFNIWGQGTMVTVSS
VL: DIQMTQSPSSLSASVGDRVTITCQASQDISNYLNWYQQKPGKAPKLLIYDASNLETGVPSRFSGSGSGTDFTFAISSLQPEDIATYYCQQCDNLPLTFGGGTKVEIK
notes: as for B1
B3: 75110_05E05A (antibody, V domains shown)
VH: QVQLQESGPGLVKPSETLSLTCTVSGGSIGSYYWSWIRQPAGKGLEWIGRIYTSGSTNYNPSLKSRVTMSFDTSKNQFSLKLNSVTAADTAVYYCATDGGVGDSLDYWGQGTLVTVSS
VL: DIVMTQTPLSLPVTPGEPASISCRSSQSLLDSDDGNTYLDWYLQKPGQSPQLLIYTLSYRASGVPDRFSGSGSGTDFTLKISRVEAEDVGVYYCMQHIEFPFTFGPGTKVDIK
notes: as for B1
B4: 75110_02E22A (antibody, V domains shown)
VH: QVQLQESGPGLVKPSETLSLTCTVSGGSISSFYWSWIRQPAGKGLEWIGRIYTSGSTNYNPSLKSRVTMSVDTSKNQFSLKLSSVTAADTAVYYCARELEKRNYYGMDVWGQGTTVTVSS
VL: DIQMTQSPSSLSASVGDRVTITCQASHDISNYLNWYQQKPGKAPKLLIFDASTLETGVPSRFSGSGSGTYFTFTIRSLQPEDIATYYCQQYDSLPLTFGGGTKVEIK
notes: as for B1
B5: 75110_04H17A (antibody, V domains shown)
VH: QVQLQESGPGLVKPSETLSLTCTVSGGSISTYYWSWIRQSAGKGLEWIGRIYTSERPNYNPSLKSRVTMSVDTSKNQFSLKLNSVSAADTAVYYCARELERPYYYGMDVWGQGTTVTVSS
VL: B4 VL with I2V, D17G, H27Q, F49Y, D50Y, T53N, Y70D, R76S, I83F, S93N
notes: as for B1
B6: 75110_04D20A (antibody, V domains shown)
VH: B4 VH with G26N, S31D, F32Y, V67I, K81E, K101R, R102Y, N103Y, Y104F, M107V
VL: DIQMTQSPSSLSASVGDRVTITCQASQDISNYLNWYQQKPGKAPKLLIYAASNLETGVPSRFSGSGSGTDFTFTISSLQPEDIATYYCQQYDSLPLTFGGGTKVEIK
notes: as for B1
B7: CD8B366 (antibody, human IgG1, kappa, V domains shown)
VH: EVQLQQSGPELVRPGASVKLSCTASGFNIKDDYIHWVKQRPEQGLEWIGRIDPANGNPRYAPKFQDKATLTADTSSNTAYLQLSSLTSEDTAVYYCARDDEGYYYFDVWGAGTSVTVSS
VL: DIKMTQSPSYLAASPGETITINCRASKSISKYLAWYQEKPGKTNKVLIYSGSTLQSGIPSRFSGSGSGTDFTLTISSLEPEDFAIYYCQQHNEYPLTFGDGTRLEIKR
notes: Full-length human IgG1, kappa
B8: CD8B186 (antibody, human IgG1, kappa, V domains shown)
VH: QVQLQQSGAELAKPGASVKMSCKASGYIFTSYWMHWVKQRPGQGLEWIGNINPSSGYAVYNQKFKDKATLTADQSSSTAYIQLNSLTSEDSAVYYCARRVFYGDSWFAYWGQGTSVTVSS
VL: DVQMIQSPASLSASVGETVTITCRASGNIHNYLAWYQQKQGKSPQLLVYNAKTLADGVPSRFSGSGSGTQYSLKINSLQPEDFGSYYCQHFWSTTWTFGGGTKLEIKR
notes: Full-length human IgG1, kappa
B9: CD8B192 (antibody, human IgG1, kappa, V domains shown)
VH: QVQLQQSGPVLVKPGASVKMSCKASGYTFTDYYMNWVMQSHGKSLEWIGVINPYNGGTTYNQRFTGKATLTVDKSSSTAYMELNSLTSEDSAVYYCARNYGAMDSWGQGTSVTVSS
VL: B8 VL with V2I, I5T, Y49S, S63G, S93I, T95P, W96P, G100A, K103R
notes: Full-length human IgG1, kappa
B10: CD8B324 (antibody, human IgG1, kappa, V domains shown)
VH: QVQLQQPGADLVKPGASVKLSCKASGYTSTSHWIHWVKQRPGQGLEWIGNIYPGSSSTNYNEKFKRMATLTVDTSSSTVYMVLSSLTSDDSAVYYCARHSPGHRDYAMDYWGLGTSVTVSS
VL: DIVMTQSQKFMPTTVGDRVSITCKASQNVGTAVAWYQQKPGQSPKLLIASASNRYTGVPDRFTGSGSGTDFTLTISTMQSEDLADYFCQQYSTYPLTFGAGTKLEMKR
notes: Full-length human IgG1, kappa
B11: CD8B245 (antibody, human IgG1, kappa, V domains shown)
VH: EFQLQQSGGGLVQPGGSLSLSCAAPGFTFTDYYMSWVRQSPGKALEWLALSRNKGNGYTTEYSASVKGRFTISRDNSQSILYLQMNVLRAEDSATYYCARTVTGTLFYYALDYWGQGTTVTVSS
VL: DIQMTQSPASLSASVGETVTITCRASENIYSYLAWYQQKQGKSPQFLVYNAKTLAAGVPSRFSGSGSGTQFSLKINRLQPEDFGTYYCQHHYGTPLTFGDGTRLEIKR
notes: Full-length human IgG1, kappa
B12: CD8B337 (antibody, human IgG1, kappa, V domains shown)
VH: QVTLKESGPGKVQPSQTLSLTCSFSGFSLSTSGMGVSWIRKPSGKGLEWLAHIFWDDDRRYKSSLKSRLTISKDTSSNQVFLMITSVDTADSATYYCARRVGYGDYAYFDVWGAGTTVTVSS
VL: DIQMTQYPASLSVSVGETVTITCRASENIYSDLAWYQQKQGKSPQLLVYAATNLADGVPSRFSGSGSGTQYSLKINSLQSEDFGNYYCQHFWGTPWTFGGGTKLEIKR
notes: Full-length human IgG1, kappa

Target: T1, huCD4-HIS (human, UniProt P01730 26-390, limits assumed)
T1 construct: Named only in the head of the ELISA binning column; not shown: HIS tag
Assay: ELISA binning; competitor Ibalizumab, 100 ng/mL huCD4-HIS, anti-HIS HRP detection (background 45, max binding 3000000)

| Binder | Ibalizumab ELISA binning signal |
| --- | --- |
| B1 | 1.99e+06 |
| B2 | 1.26e+06 |
| B3 | 1.64e+06 |
| B4 | 1.86e+06 |
| B5 | 1.89e+06 |
| B6 | 2.11e+06 |

Target: T2, human CD4 on cells (SKW3 cells; human PBMCs) (human, UniProt P01730 26-458)
T2 construct: whole, on cells; SKW3 CD4 knockout cells served as the negative cell line for the WT vs KO ratios; also called hCD4; SKW3 WT
Assay: SKW3 FACS binning; competitor OKT4a added after supernatant, anti-hu A647 secondary (background 5000, max binding 35000)

| Binder | OKT4a anti-hu A647 signal in binning |
| --- | --- |
| B1 | 32200 |
| B2 | 15900 |
| B3 | 35500 |
| B4 | 41900 |
| B5 | 34000 |
| B6 | 29200 |

Target: T2, human CD4 on cells (SKW3 cells; human …)
Assay: SKW3 FACS binning; competitor OKT4-A488 added after supernatant (background 2163, max binding 8200)

| Binder | OKT4 A488 signal in binning |
| --- | --- |
| B1 | 8730 |
| B2 | 9920 |
| B3 | 9100 |
| B4 | 8480 |
| B5 | 9440 |
| B6 | 7370 |

Target: T2, human CD4 on cells (SKW3 cells; human …)
Assay: FACS confirmation, supernatant on human PBMCs, anti-mFc 647, CD4+ gate

| Binder | CD4+ gate RL1 Binding |
| --- | --- |
| B1 | 296000 |
| B2 | 241000 |
| B3 | 227000 |
| B4 | 276000 |
| B5 | 302000 |
| B6 | 174000 |

Target: T2, human CD4 on cells (SKW3 cells; human …)
Assay: SKW3 FACS binning; competitor RPA-T4-PE-Dazzle 594 added after supernatant (background 783, max binding 15000)

| Binder | RPA-T4-PE-Dazzle 594 signal in binning |
| --- | --- |
| B1 | 15800 |
| B2 | 14000 |
| B3 | 16500 |
| B4 | 15300 |
| B5 | 16800 |
| B6 | 17100 |

Target: T2, human CD4 on cells (SKW3 cells; human …)
Assay: FACS primary screen, non-clonal hybridoma supernatant; SKW3 WT vs SKW3 CD4 KO cells, anti-mFc-647

| Binder | SKW3 WT vs KO anti-mFc-647 |
| --- | --- |
| B1 | 10.3 fold |
| B2 | 4.1 fold |
| B3 | 9.4 fold |
| B4 | 4.7 fold |
| B5 | 2.9 fold |
| B6 | 4.5 fold |

Target: T2, human CD4 on cells (SKW3 cells; human …)
Assay: FACS primary screen, non-clonal hybridoma supernatant; SKW3 WT vs SKW3 CD4 KO cells, anti-hKappa-FITC

| Binder | SKW3 WT vs KO anti-hKappa-FITC |
| --- | --- |
| B1 | 3.3 fold |
| B2 | 1.9 fold |
| B3 | 3.2 fold |
| B4 | 1.6 fold |
| B5 | 1.6 fold |
| B6 | 2.3 fold |

Target: T3, human CD8 on human pan T cells (CD4-negative population) (human, UniProt P01732 22-235; P10966 22-210)
T3 construct: whole, on cells; Target is CD8 as it stands on primary human pan T cells
Assay: flow cytometry, 20 nM antibody on human pan T cells, A647 anti-human IgG Fc; geomean ratio in CD4-negative population

T3 sequence (P01732 22-235, chain 1 of 2): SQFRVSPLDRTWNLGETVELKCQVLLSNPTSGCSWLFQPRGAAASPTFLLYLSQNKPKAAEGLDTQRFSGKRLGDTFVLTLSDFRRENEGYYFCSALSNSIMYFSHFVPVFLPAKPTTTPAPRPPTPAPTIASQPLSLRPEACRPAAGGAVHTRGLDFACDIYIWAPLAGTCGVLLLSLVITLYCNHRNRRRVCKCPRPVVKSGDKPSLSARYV
T3 sequence (P10966 22-210, chain 2 of 2): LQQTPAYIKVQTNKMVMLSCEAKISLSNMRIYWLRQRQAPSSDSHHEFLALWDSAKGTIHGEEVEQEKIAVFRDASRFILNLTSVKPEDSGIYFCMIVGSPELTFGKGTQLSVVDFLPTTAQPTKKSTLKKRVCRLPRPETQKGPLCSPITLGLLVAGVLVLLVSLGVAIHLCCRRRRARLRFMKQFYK

| Binder | Cell Binding to Human PanT Signal/Background (of CD4 negative population) |
| --- | --- |
| B7 | 318 signal/background |
| B8 | 36 signal/background |
| B9 | 22 signal/background |
| B10 | 1610 signal/background |
| B11 | 44 signal/background |
| B12 | 1980 signal/background |

Target: T2, human CD4 on cells (SKW3 cells; human …)
Assay: FACS confirmation, supernatant on SKW3 WT cells, anti-mFc 647 (Bkrd gMFI = 3300)

| Binder | gMFI |
| --- | --- |
| B1 | 24800 gMFI |
| B2 | 13800 gMFI |
| B3 | 38800 gMFI |
| B4 | 17300 gMFI |
| B5 | 27200 gMFI |
| B6 | 21900 gMFI |

Target: T2, human CD4 on cells (SKW3 cells; human …)
Assay: FACS confirmation, supernatant on human PBMCs, anti-mFc 647, percent of viable cells

| Binder | CD4+ Percent Bound of Viable |
| --- | --- |
| B1 | 29% |
| B2 | 28% |
| B3 | 28% |
| B4 | 31% |
| B5 | 30% |
| B6 | 28% |

Target: T2, human CD4 on cells (SKW3 cells; human …)
Assay: FACS confirmation, supernatant on SKW3 WT cells, anti-hu Kappa FITC (Bkrd gMFI = 2500)

| Binder | gMFI |
| --- | --- |
| B1 | 6660 gMFI |
| B2 | 5140 gMFI |
| B3 | 8320 gMFI |
| B4 | 4280 gMFI |
| B5 | 7430 gMFI |
| B6 | 6790 gMFI |
